Source: US10239925B2, “Peptides and combination of peptides for use in immunotherapy against ovarian cancer and other cancers” (IMMATICS BIOTECHNOLOGIES GMBH, priority 2015, dated 2019)

Each substance was assayed against HLA-A*02:01 (Homo sapiens, UniProt P04439, D140Y/D185E/D98H/E176V/E277Q/G131W/G231S/I119V/I121R/I166T/I218V/L300P/L318F/N151K/N90K/P208A/P217A/Q86G/Q94H/R138H/R169H/T345S) (assay: MHC binding assay (UV-ligand exchange, anti-β2m ELISA, peptide exchange yield)). Conditions: binding to HLA-A*02:01.
Excerpt: Candidate peptides for T cell based therapies according to the present invention were further tested for their MHC binding capacity (affinity). The individual peptide-MHC complexes were produced by UV-ligand exchange, where a UV-sensitive peptide is cleaved upon UV-irradiation, and exchanged with the peptide of interest as analyzed. Only peptide candidates that can effectively bind and stabilize the peptide-receptive MHC molecules prevent dissociation of the MHC complexes. To determine the yield of the exchange reaction, an ELISA was performed based on the detection of the light chain (β2m) of stabilized MHC complexes. The assay was performed as generally described in Rodenko et al. (Rodenko et al., 2006).
96 well MAXISorp plates (NUNC) were coated over night with 2 ug/ml streptavidin in PBS at room temperature, washed 4× and blocked for 1h at 37° C. in 2% BSA containing blocking buffer. […] Peptide-MHC monomers of the UV-exchange reaction were diluted 100 fold in blocking buffer. Samples were incubated for 1 h at 37° C., washed four times, incubated with 2 ug/ml HRP conjugated anti-β2m for 1h at 37° C., washed again and detected with TMB solution that is stopped with […]. Absorption was measured at 450 nm. Candidate peptides that show a high exchange yield (preferably higher than 50%, most preferred higher than 75%) are generally preferred for a generation and production of antibodies or fragments thereof, and/or T cell receptors or fragments thereof, as they show sufficient avidity to the MHC molecules and prevent dissociation of the MHC complexes.

Substance | Peptide exchange (MHC class I binding score, peptide exchange yield)
361 (ALYELEGTTV; listed as Homo sapiens) [compound 361] | “+++” (>50 = +++)
297 (VLADIELAQA; listed as Homo sapiens) [compound 297] | “+++” (>50 = +++)
125 (VQIHQVAQV; listed as Homo sapiens) [compound 125] | “+++” (>50 = +++)
196 (YLYSVEIKL; listed as Homo sapiens) [compound 196] | “++++” (>75% = ++++)
168 (KILDADIQL; listed as Homo sapiens) [compound 168] | “++++” (>75% = ++++)
502 (RLLAQVPGL; listed as Homo sapiens) [compound 502] | “+++” (>50 = +++)
526 (RLAEVGQYEQV; listed as Homo sapiens) [compound 526] | “++” (>20% = ++)
217 (ALIHPVSTV; listed as Homo sapiens) [compound 217] | “++” (>20% = ++)
184 (YLMDINGKMWL; listed as Homo sapiens) [compound 184] | “+++” (>50 = +++)
366 (RLLDMGETDLML; listed as Homo sapiens) [compound 366] | “+++” (>50 = +++)
282 (LLADVVPTT; listed as Homo sapiens) [compound 282] | “+++” (>50 = +++)
357 (SMHDLVLQV; listed as Homo sapiens) [compound 357] | “+++” (>50 = +++)
27 (ILADIVISA; listed as Homo sapiens) [compound 27] | “+++” (>50 = +++)
303 (AILPQLFMV; listed as Homo sapiens) [compound 303] | “++++” (>75% = ++++)
312 (IISDLTIAL; listed as Homo sapiens) [compound 312] | “+++” (>50 = +++)
582 (TLCDVILMV; listed as Homo sapiens) [compound 582] | “+++” (>50 = +++)
29 (KMLGIPISNILMV; listed as Homo sapiens) [compound 29] | “+++” (>50 = +++)
244 (SLFGGTEITI; listed as Homo sapiens) [compound 244] | “+++” (>50 = +++)
371 (FLQAHLHTA; listed as Homo sapiens) [compound 371] | “++++” (>75% = ++++)

Substance | Peptide exchange (MHC class I binding score, peptide exchange yield)
176 (YLMEGSYNKVFL; listed as Homo sapiens) [compound 176] | “++” (>20% = ++)
427 (ALLPLSPYL; listed as Homo sapiens) [compound 427] | “+++” (>50 = +++)
529 (LLADELITV; listed as Homo sapiens) [compound 529] | “+++” (>50 = +++)
84 (VTFGEKLLGV; listed as Homo sapiens) [compound 84] | “++” (>20% = ++)
280 (VLPDPEVLEAV; listed as Homo sapiens) [compound 280] | “+++” (>50 = +++)
233 (VLSETLYEL; listed as Homo sapiens) [compound 233] | “++” (>20% = ++)
576 (ILLNNSGQIKL; listed as Homo sapiens) [compound 576] | “++++” (>75% = ++++)
129 (GLLDGGVDILL; listed as Homo sapiens) [compound 129] | “+++” (>50 = +++)
507 (KLIDDQDISISL; listed as Homo sapiens) [compound 507] | “+++” (>50 = +++)
226 (MLYVVPIYL; listed as Homo sapiens) [compound 226] | “++” (>20% = ++)
448 (NLLETKLQL; listed as Homo sapiens) [compound 448] | “+++” (>50 = +++)
64 (YAAPGGLIGV; listed as Homo sapiens) [compound 64] | “++” (>20% = ++)
556 (FLTDLEDLTL; listed as Homo sapiens) [compound 556] | “+++” (>50 = +++)
189 (ALQRKLPYV; listed as Homo sapiens) [compound 189] | “+++” (>50 = +++)
90 (TLLQIIETV; listed as Homo sapiens) [compound 90] | “+++” (>50 = +++)
197 (ALGPEGGRV; listed as Homo sapiens) [compound 197] | “++” (>20% = ++)
579 (NLMEMVAQL; listed as Homo sapiens) [compound 579] | “++” (>20% = ++)
315 (YLQDVVEQA; listed as Homo sapiens) [compound 315] | “+++” (>50 = +++)
289 (VLLEIEDLQV; listed as Homo sapiens) [compound 289] | “++++” (>75% = ++++)

Substance | Peptide exchange (MHC class I binding score, peptide exchange yield)
512 (SLSEIVPCL; listed as Homo sapiens) [compound 512] | “+++” (>50 = +++)
270 (LLLDEEGTFSL; listed as Homo sapiens) [compound 270] | “++” (>20% = ++)
607 (RLYSGISGLEL; listed as Homo sapiens) [compound 607] | “+++” (>50 = +++)
211 (LLWPGAALL; listed as Homo sapiens) [compound 211] | “++” (>20% = ++)
102 (YLFESEGLVL; listed as Homo sapiens) [compound 102] | “+++” (>50 = +++)
402 (VLFSGALLGL; listed as Homo sapiens) [compound 402] | “++” (>20% = ++)
615 (VLPPDTDPA; listed as Homo sapiens) [compound 615] | “++” (>20% = ++)
497 (GLLEKLTAI; listed as Homo sapiens) [compound 497] | “+++” (>50 = +++)
47 (ILLSVPLLVV; listed as Homo sapiens) [compound 47] | “++” (>20% = ++)
93 (LLQAIKLYL; listed as Homo sapiens) [compound 93] | “++” (>20% = ++)
548 (ALWENPESGEL; listed as Homo sapiens) [compound 548] | “++” (>20% = ++)
296 (FMEGAIIYV; listed as Homo sapiens) [compound 296] | “+++” (>50 = +++)
20 (RMIEYFIDV; listed as Homo sapiens) [compound 20] | “+++” (>50 = +++)
316 (ILLERLWYV; listed as Homo sapiens) [compound 316] | “+++” (>50 = +++)
180 (FQIDPHSGLVTV; listed as Homo sapiens) [compound 180] | “++” (>20% = ++)
501 (LLDPNVKSIFV; listed as Homo sapiens) [compound 501] | “+++” (>50 = +++)
140 (YMDAPKAAL; listed as Homo sapiens) [compound 140] | “++” (>20% = ++)
144 (YIMEPSIFNTL; listed as Homo sapiens) [compound 144] | “+++” (>50 = +++)
